Molecular target: the molecule itself

B1: Nsp1•Nup49•Nup57 channel nup hetero-trimer (CNT) (complex, Chaetomium thermophilum)
chain 1: MDEIITRWATDLAKYQKEFKEQAAKVMEWDRLLVENGEKIQKLYTSTYEAERASNEIERQLSNVESQQEELTAWLDRYERELDELYAKQMGSAAGEQAAGPDQERERTYKLAEKLTDQLDEMGKDLAKMIKEINDMSNTLSKGSKPDDPLTQIVRVLNGHLAQLQWIDTNAAALQAKVAAAQKAAGSMGANVPGTETDAAESFYRSYR
chain 2: EALQQEIAKIDEEIQKCIRDKEAVDAFLPAHGEQLAAIPTDVNFVTRKSEGAHNALSSDILAIDQLRELVKQDADNARLSFKAIDNLKLPMQYHQAGLWSKQMGGAGTAGASGASADADGQSNADLISYFSKTADEMEEMMKKFEKTITEIEAHLTGVEAHAMAMQNVAAQSRNAAQGGVDERVYELAAVLREFEESILKVAGVVGGVKEGVTELQLRDFMGHGS
chain 3: YQKPIPEQIKLIVDKWNPNHPNCAFKTYLYNKVDEHTVPLYGPGPNEDPKEWEEALQRKPAPNFIPVLCSGFPSIVARLMLQRRVITEFNNKLHQINASLDAILSRHDLDHTVRAFNARRRHAELSRRCLHLAARVQVLRNRGYALSGDEDELKQKLQQIDKTLNDPAQGSRLEELWSRLIVLRGYAEDLKDQINQAGITESDGLGEEIEAKAKKILEDYDKQLQHLKKQVEEAKKDFEEWEKQHN
stoichiometry N: 2

Reference: paper PMC4826903 (Science (New York, N.Y.), 2015)
